Laboratory results taken from patent US20190390248.

Target: human prothrombin (UniProt P00734)

For “carinactivase-2 from Echis carinatus venom”, the “percent of S-2238 hydrolysed by the thrombin formed” value was “followed by carinactivase-2 (2.5%)” and the Thrombin generation rate (scale: nmol thrombin/mL/min/µmol prothrombin/µmol activator) was 1.91.
